The nanobody polyreactivity screen of Harvey et al. (2022)

Assay: yeast display, Sf9 membrane polyspecificity reagent, FACS + sequencing; frameworks hold sequencing errors
Outline: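 In a synthetic yeast display library (Saccharomyces cerevisiae BJ5465), nanobody expression was induced with galactose for 36–48 hours. FACS gates were set low and high (top ~1%) using anti-HA fluorescence for expression and streptavidin fluorescence for binding of the Sf9 membrane reagent. Each polyreactivity label is drawn from the gate of origin.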

Sequence | polyreactivity (PSR sort gate)
QVQLVESGGGLVQAGGSLRLSCAPSGRTLFHYAMGWYRQAPGKERELVAAISSGGRTNYADSVKGRFTISRDNAKNTVYLQMNSLKPEDTAVYYCAARRFYLQHGFEYWGQGTQVTVSS | high polyreactivity
QVQLVESGGGLVQAGGSLRLICAASGYTFLDYARGWYRQAPGKERELVASITSSGGSTYYADSVKGRFTISRDNAKNTVFLQMMSLIPEDTAVYYCASDGCIYYYFTLRYGYWGQGTQVTVSS | low polyreactivity
QVQHVESGGGLVQAGGSLRLSCAASGFIFRRYVMGWYRQAPGKERELVAAISYGGGSTYYADSVKGRFTISRDNAKNTVYLQMNCLKPEDTAVYYCNAVSYNLAAYDYWGQGTQVTVSS | high polyreactivity
QVQLVESGGGLVQAGVSLRLSCAASGRTLPRYAMGWYRQAPGKEREFVAAITFGGDSTYYADSVKGRFTISRDNAKNTVYLQMNSLKPEDTAVYSCAAKSFRGQRFGYWGQGTQVTVSS | high polyreactivity
QVQLVESGGGLVQAGGSLRLSCAASGRIFGAYAMGWYRQATGKERELVAAIRWSGARTYYADSVKGRFTISRDNAKNTVYLQMNSLKPEDTAVYYCATRQAYRPLKFDYWGQGTQVTVSS | high polyreactivity
QVQLVESGGGLVQAGGSLRLSCASSGITFRRYTMVWYRQAPGKERELVAAISRIGGSTYYADSVKGRFTISRDNAKNTVYLQMNSLKPEDTAVYYCATYYGGSGYDYWGQGTEVTVSS | high polyreactivity
QVQLVESGGGLVQAGGSLRLSCAASGRTFVWNAMGWYRQAPGKERELVAAITSGGSTNYADSVKGRFTISRDNAKNTVYLQMNSLKPEDTAVYYCAADWQYSPRMDYWGQGTQVTVSS | low polyreactivity
QVQLVESGGGLVQAGGSLRLSCAASGTIFFFYVMGWYRQAPGKERELVAAITYSGGSTFYADSVKGRFTISRDNAKNTVYLQMNSLKPEDTAVYYCAAVYGQWTPLDPYNHWGQGTQVTVSS | low polyreactivity
QVQLVESGGGLVQAGGSLRLSCAASGSIFDDYAMGWYRQAPGKERELVAAITTGGGRTYYADSVKGRFTISRDNAKNTVYLQMNSLKPEDTAVYYCNAKAVRGYGTWRDGSISYGMDYWGQGTQVTVSS | high polyreactivity
QVQLVDSGGGLVQAGGSLSLSCAASGRTFVTNAMGWYRQAPGKERELVAAISGNGGSTYYADSVKGRFTISRDNAKNTVYLQMNSLKPEDTAVYYCNKDYHVRYYYWGQGTQVTVSS | low polyreactivity
QVQLVESGGGLVQAGGSLRLSCAASGFILRRYTMGWYRQAPGKEREFVAGISWRGGSTYYADSVKGRFTISRDNAKNTVYLQMNSLKPEDTAVYYCAAETYQLTWVLYYYWGQGTQVTVSS | high polyreactivity
QVQLVESGGGLVQAGGSLRLSCAASGFIFGLYAIGWYRQAPGKERELVAAISRSGGSTYYADSVKGRFTISRDNAKNTVYLQMNSLKPEDTAVYYCNARYSWPRATWYDYWGQGTQVTVSS | high polyreactivity
QVQLVESGGGLVQAGGSLRLSCAASGFTFYTNAMGWYRQARGQERELVAAISSSGGRTYYADSVKGRFTISRDNAKNTVYLQMNSLKPEDTAVYYCNAYFTRSFSYIYWGQGTQVTVSS | high polyreactivity
QVQLVESGGGLVQAGGSLRLSCAASGFTFRGNAMGWYRQAPGKERELVATISRGGNTNYADSVKGRFTISRDNAKNTVYLQMNSLKPEDTAVYYCAAVSYIRSKVAYNYWGQGTQVTVSS | low polyreactivity
QVQLVESGGGLVQAGGSIRLSCAASGRILYGNAMGWYRQAPGKEREFVAAITFRGGSTYYADSVKGRFTISRDNAKNTVYLQMNSLKPEDTAVYYCNARGHCGWGTSMYYWGQGTQVTVSS | high polyreactivity
QVQLVESGGGLVQAGGSLRLSCAASGSTFKRYAMGRDRQAPGQERELVAAITWRGGSTYYADSVKGRFTISRDNAKNTVYLQMNSLKPEDTAVYYCNKASWKVGPGIGYDYWGQGTQVTVSS | high polyreactivity
QVQLVESGGGLVQAGGSLRLSCAASGSTFKPYTMGWYRQAPGKERELVAGISSVDSTYYADSVKGRFTISRDNAKNTVYLQMNSLKPEDTAVYYCNKRKWPTFTYAMNYWGQGTQVTVSS | low polyreactivity
QVQLVESGGGLVEAGGSLRLSCAASARTFIGNAMVWYRQAPGKERELVAGIDSDGSTNYADSVNGRFTSSRDNAKNTVYLQMNSLKPEDTAVYYCAAVQGYRFYEYYYWGQGTQVTVSS | low polyreactivity
QGQLVESGGRLVQAGVSLRLSCAASGFIFPKYAMGWYRQAPGKERELVAVITWRSGSTYYADSVKGRFTISRDNAKNTVYLQMNSLKTEETADYYCNARRSSGRYSKMGYWGQGTQVTVSS | high polyreactivity
PVQLQESGGGLVQAGGSLRLSCAESGNIFDADIMGWYRQAPGKERELVDCIADGGSTNYADSVKGSFTISRDNAKITVYLQMNSLKPEDTAVYYCAAIAYPDIPTCFDYDSDYFFRGQGTQVTVSS | low polyreactivity
QVQLVESGGGLVQAGGSLRLSCAASGRTFTRNAMGWYRQAPGKDRELVAAISYSGGSTYYADSVKGRFTISRDNAKNTVYLQMNSLKPEDTAVYYCNAATSRRSIRYDYWGQGTQVTVSS | high polyreactivity
QVQLVESGGGLVQAGGSLRLSCAASGRTFYRNAMGWYRQAPGKERELVAAIRGSGSSTYYADSVKGRFTISRDNAKNTVYLQMNSLKPEDTAVYYCAADYITYNGYARYYYWGQGTQVTVSS | high polyreactivity

Sequence | polyreactivity (PSR sort gate)
QVQLVESGGGLVQAGGSLRLSCAASGFIRTYAMGWYRQAPGKERELVAAITSSGGRTYYADSVKGRFTISRDNAKNTVYLQMNSLKPEDTAVYYCAAGLGRYLRYNYWGQGTQVTVSS | high polyreactivity
QVQLVESGGGLVQAGGSLRLSCAASGSTFFPYAMGWYRQAPGKERELVAAIRWSGGRTYYADSVKGRFTISRDNAKNTVYLQMNSLNPEDTAVYYCAAAKYLDYDYWGQGTQVTVSS | high polyreactivity
QVQLVESGGGLVQAGGSLRLSCAASGRTSNGYAMGWYRQAPGKERELVAAYADSVKGRFTISRDNAKNTVYLQMNSLKPEDTAVYYCNADYYPVSRVGYVYWAYYYWGQGTQVTVSS | low polyreactivity
QVQLVESGGGLVQAGGSLRLSCAASGSIFGSNAMGWYRRAPGKERELVAVINASGASTYYADSVKGRFTISRDNAKNTVYLQKNSLKPEDTAVYYCAKDPFPFPGGDYWGQGTQVTVSS | low polyreactivity
HVQLVESGGGLVQAGGSLRLSCAASGSIYGGNTMGWYRQAPGKERELVAAISRSGGSTYYADSVKGRFTISRDNAKNTVYLQMNSLKREDTAVYYCKRKQAGHGQGYDYWGQGTQVTVSS | high polyreactivity
QVQLVESGGGLVQAGGSLRLSCAASGFTLGFYAMGWYRQEPGKERELVAAINWRGGSTYYADSVKGRFTISRDNAKNTVYLLMNSLKPEDTAVYYCNRVYRPSRYDYWGQGTQVTVSS | high polyreactivity
QVQLVESGGGLVQAGGSLRLTCAASGLTFPKYAMGWYRQAPGKERELVAAITQRGGSTYYADSVKGRFTISRDNAKNTVYLQMNSLKPEDTAVYYCNARRRDYNNRREFDYWGQGTQVTVSS | high polyreactivity
QVQLVESGGGLVQAGGSLRLSCAASGNTFGRNAMGWYIQAPGKERELVAAIDIGADTNYADSVKGRFTISRDNAKNTVYLQMNSLKPEDTAVYYCAASYRYVRWKWGYNYWGQGTQVTVSS | high polyreactivity
QVQLVESGGVLVQAGGSLRLSCAASGRTLRPYAMGWYRQAPGKERELVAAMTGGVSTDYADSVKGRFTISRDNAKNTVYLQRNSLKPEDTAVYYGAVDDRWFNHISGRYYEYYYWGQGTQVTVSS | low polyreactivity
QVQLVESVGGLVQAGGSLRLSCAASGRTFGHYAMGWYRQEPGKERELVAAITSRGGSTNYADSVKGRFTISRDNAKNTVYLQMNSLKPEDTAVYYCAADTLIPDYSATFGYWGEGTQVTVSS | high polyreactivity
QVQHVESGGGLVQAGGSLRLSCAASGIIFKLYAMGWYRQAPGKEREFVATITKTGGRTYYADSVKGRFTISRDNAKNTVYLQMNSLKPEDTAVYYCAARRVNGKMYYWGQGTQVTVSS | high polyreactivity
QVQLVESGGGLVQAGGSLRLTCAASGRTFRRNAMGWYRPAPAKERELVAAITSGGGTYYADSVKGRFTISRDNAKNTVYLQMNSLKPEDTAVYYCNKKTSAGRVDYWGQGTQVTVSS | high polyreactivity
QVQLVESGGGLVQAGGSLRLSCAASGRTFVGYTMGWYRQAPGKERELVAAIDLSDGSTSYADSVKGRFTISRDNAKNSVYLQMNSLKPEDTAVYYCAKTWANVYAGAHDYWGQGTQVTVSS | low polyreactivity
QVQLVESGGCLVQAGGSLRLSCAASGRIFQRYAMGWYRQAPGKERELVAGITSAGGSTYYADSVKGRFTISRDNAKNTVYLQMKRLKPEDTAVYYCNAGGELRYYGYRAGGTTRSYDYWGQGTQVTVSS | low polyreactivity
QVQRVESGGGLVQAGGSLRLSCAASGSTFGNAMGWYRQAPGKERELVAAISSRGDRTYYADSVQGRFTISRDNAKNTVYLQMNSLKPEDTAVYYCAKDGYPNKYDYWGQGTQVTVSS | high polyreactivity
QVQLVESGGGLVQAGGSLRLSCAASGFIFDSYVMGWYRQAPGKERELVAAISRRNSSTYYADSVKGRFTNSRDNAKNTVYLQMNSLKPEDTAVYYCAAKYLRAYGYWGQGTQVTVSS | high polyreactivity
QVQLVESGGGLVQAGGSLRLSCAASGRTYTFYARGWYRQAPGKERELVAAITWGGGSTYYADSVKGRFTISRDNAKNTVYLQMNSLKPEDTAVYYCAAEWYEPVGSRWYSPYYYWGQGTQVTVSS | high polyreactivity
QVQLVESGGGLVQAGGSLRLSCAASGSTFYVNAMGWYRQAPGKERELVAAISWTDDSTYYADSVKGRFTISRDNAKNTVYLQMNSLKPEDTAVYYCAAEQYRYYEVEYWGQGTQVTVSS | high polyreactivity
QVQLVESVGGLDQAGGSLRLSCAASGSTFKRYVMGWYRQAPGKERELVAAITWSGTRTYYADSVKGRFTLSRDNAKNTVYLQMNSLKPEDTAVYYCAARLYGGYDWGQGTQVTVSS | high polyreactivity
QVQLVESGGGLVQAGGSLRLSCAASGFIFPVYAMGWYTQGGGKERELVADISSDGSTNYADSVKGRFTISRDNAKNTVYLQMNSLKPEDTAVYYCAREDNLRHQSDSRYDYWGQGTQVTVSS | low polyreactivity
QVQLVESGGGLVQAGGSLRLSCAASGSTFYANAMGWYRQAPGKERELVAVIRWSGGSTYYADSVKGRFTISRDNAKNTVYLQMNSLKPEDTAVYYCNADFYRVAYLRRYSHFDYWGQGTQVTVSS | high polyreactivity
